In PMC7957537 (2021) one finds Kd and koff data, which are given here for one molecule.

Assay [1] has as its target T1, recombinant human VEGFR2 (human, UniProt P35968 20-764).
T1 chain: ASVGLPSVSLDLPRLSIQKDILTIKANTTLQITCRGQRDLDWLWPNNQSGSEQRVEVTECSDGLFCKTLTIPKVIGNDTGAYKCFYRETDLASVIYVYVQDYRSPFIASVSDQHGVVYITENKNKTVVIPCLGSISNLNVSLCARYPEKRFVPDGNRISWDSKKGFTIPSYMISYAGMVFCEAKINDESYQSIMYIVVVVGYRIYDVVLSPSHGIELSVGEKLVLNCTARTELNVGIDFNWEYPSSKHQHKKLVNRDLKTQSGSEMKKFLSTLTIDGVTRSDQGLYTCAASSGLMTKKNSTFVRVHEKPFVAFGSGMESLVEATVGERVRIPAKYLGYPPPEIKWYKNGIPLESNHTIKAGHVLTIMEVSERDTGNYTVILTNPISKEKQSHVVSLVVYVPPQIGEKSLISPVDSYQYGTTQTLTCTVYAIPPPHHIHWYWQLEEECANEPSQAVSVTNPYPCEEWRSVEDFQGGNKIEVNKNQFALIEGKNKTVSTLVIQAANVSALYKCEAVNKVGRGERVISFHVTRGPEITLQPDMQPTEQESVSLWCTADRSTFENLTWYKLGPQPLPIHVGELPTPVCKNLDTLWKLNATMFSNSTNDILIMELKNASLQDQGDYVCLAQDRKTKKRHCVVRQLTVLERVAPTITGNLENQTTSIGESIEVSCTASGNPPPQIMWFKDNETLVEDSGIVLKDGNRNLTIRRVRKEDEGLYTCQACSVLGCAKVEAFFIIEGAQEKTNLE
Nature of the assay: SPR.

Assay [2] has as its target T1, recombinant human VEGFR2. The assay can be described thus: SPR. (In general: In SPR one partner is held on a chip, and binding of the other changes the refractive index at the surface.)

B1: ramucirumab (Cyramza) (antibody, V domains shown)
VH: EVQLVQSGGGLVKPGGSLRLSCAASGFTFSSYSMNWVRQAPGKGLEWVSSISSSSSYIYYADSVKGRFTISRDNAKNSLYLQMNSLRAEDTAVYYCARVTDAFDIWGQGTMVTVSS
VL: DIQMTQSPSSVSASIGDRVTITCRASQGIDNWLGWYQQKPGKAPKLLIYDASNLDTGVPSRFSGSGSGTYFTLTISSLQAEDFAVYFCQQAKAFPPTFGGGTKVDIK
In general, Kd refers to the concentration at which binding is half-saturated. One may read the koff as the rate constant with which the complex falls apart. For B1, the equilibrium dissociation constant (Kd) with recombinant human VEGFR2 [1] came out at 949 pM. Besides, in the assay with recombinant human VEGFR2 [2], the off-rate (koff) came out at 0.000102 s⁻¹.
